Test results reported in patent publication US20230105029A1 (CHIA TAI TIANQING PHARMACEUTICAL GROUP, published 2023).
Like-named read-outs stand apart in the source and are kept apart here.

Legend:
[1] = molecular target: T1, human IL4Rα expressed on 293F-IL4Rα cells (human, UniProt P24394 26-825); assay: flow cytometry on 293F-IL4Rα cells, blocked ligand biotin human IL4
T1 construct: whole, on cells; also called cell surface human IL4Rα

[2] = molecular target: T2, marmoset monkey IL4Rα-his protein (marmoset monkey); assay: indirect ELISA, coated cal-IL4Rα-his
T2 construct: Custom made by Sino biological; no cleavage site stated; also called cal-IL4Rα-his; Cal-IL4Rα
T2 chain: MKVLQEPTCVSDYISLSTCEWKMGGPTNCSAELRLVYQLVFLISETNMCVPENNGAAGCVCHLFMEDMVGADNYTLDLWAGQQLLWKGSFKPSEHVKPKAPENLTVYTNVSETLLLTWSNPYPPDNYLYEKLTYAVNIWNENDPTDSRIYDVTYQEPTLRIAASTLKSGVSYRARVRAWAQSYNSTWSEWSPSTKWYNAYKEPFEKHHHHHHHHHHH

[3] = molecular target: T1, human IL4Rα expressed on 293F-IL4Rα …; assay: flow cytometry, 293F-IL4Rα cells
Method: Then, 2×10⁵ cells per well in 96 well-plates were incubated in 100 μL of the anti-IL4Rα antibodies or controls of various concentrations (starting at 80 nM with a 4-fold serial dilution) in FACS buffer for 40 minutes on ice. […] Following an incubation of 40 minutes at 4° C. in dark, cells were washed three times and resuspended in FACS buffer. Fluorescence was measured using a Becton Dickinson FACS Canto II-HTS equipment. Data was analyzed using Graphpad Prism software and EC₅₀ values were reported.

[4] = molecular target: T3, cynomolgus monkey IL4Rα-his protein (cynomolgus monkey, UniProt A0A2K5V580 33-239); assay: indirect ELISA on coated cynomolgus IL4Rα-his
T3 construct: Bought protein; also called Cynomolgus IL4Rα; Cyno-IL4Rα-his; not shown: his tag

[5] = molecular target: T4, recombinant human IL4Rα-his protein (in house made) (human, UniProt P24394 26-232, limits assumed); assay: competitive ELISA, blocks biotin-IL4 binding to coated IL4Rα-his
T4 construct: also called Human IL4Ra-his
Method: Serially diluted anti-IL4Rα antibodies or the controls (starting at 80 nM with a 4-fold serial dilution) in 2.5% w/v non-fatty milk in PBST, 100 μl per well, were added to the IL4Rα bound plates, and incubated with the human IL4Rα-his proteins at 37° C. for 40 minutes. Plates were washed 4 times using wash buffer, and then added and incubated for 40 minutes at 37° C. with 100 μl/well of 0.56 nM biotin-labeled human IL4 protein (Sino biological inc., Cat #11846-HNAE). Plates were washed again using wash buffer. Thereafter, the plates were added with 100 μl/well of streptavidin conjugated HRP (1:10000 dilution in PBST buffer, Jackson Immunoresearch, Cat #016-030-084) and incubated for 40 minutes at 37° C. Plates were washed again using wash buffer. Finally, TMB was added and the reaction was stopped using 1M H₂SO₄, and the absorbance was read at 450 nm. Data was analyzed using Graphpad Prism software and IC₅₀ values were reported.

[6] = molecular target: T1, human IL4Rα expressed on 293F-IL4Rα …; assay: flow cytometry, blocks biotin-IL4 binding to 293F-IL4Rα cells
Method: Then, 1×10⁵ cells per well in 96 well-plates were incubated in 100 μL of the anti-IL4Rα antibodies or controls of various concentrations (starting at 80 nM with a 4-fold serial dilution) in FACS buffer for 40 minutes on ice. The plates were washed twice with FACS buffer, and added and incubated for 40 minutes at 4° C. in dark with 100 μl/well 1.67 nM biotin-labeled human IL4 protein (Sino biological inc., Cat #11846-HNAE). The plates were washed twice with FACS buffer, and then added and incubated for 40 minutes at 4° C. in dark with 100 μl/well R-Phycoerythrin Streptavidin (1:500 dilution in FACS buffer, Jackson Immunoresearch, Cat #016-110-084). Cells were washed twice and resuspended in FACS buffer. Fluorescence was measured using a Becton Dickinson FACS Canto II-HTS equipment. Data was analyzed using Graphpad Prism software and IC₅₀ values were reported.

[7] = molecular target: T3, cynomolgus monkey IL4Rα-his protein; assay: indirect ELISA, coated cyno IL4Rα-his
[8] = molecular target: T4, recombinant human IL4Rα-his protein (in …); assay: capture ELISA: antibody captured on anti-IgG Fc plate, biotin human IL4Rα-his detected
[9] = molecular target: T4, recombinant human IL4Rα-his protein (in …); assay: competitive ELISA: coated human IL4Rα-his, blocked ligand biotin human IL4
[10] = molecular target: human IL4Rα expressed on HEK293T-IL4Rα-STAT6-STAT6LUC-LB2 cells (human, UniProt P24394 26-825); assay: cell-based or functional assay
[11] = molecular target: T4, recombinant human IL4Rα-his protein (in …); assay: SPR (Biacore), antibody captured, IL4Rα-his flowed
[12] = molecular target: T1, human IL4Rα expressed on 293F-IL4Rα …; assay: flow cytometry on 293F-IL4Rα cells
[13] = molecular target: T2, marmoset monkey IL4Rα-his protein; assay: indirect ELISA on coated cal-IL4Rα-his
[14] = molecular target: T4, recombinant human IL4Rα-his protein (in …); assay: SPR (Biacore), antibody captured, IL4Rα-his flowed; remark: listed apart in the source
[15] = molecular target: T4, recombinant human IL4Rα-his protein (in …); assay: capture ELISA, biotin-IL4Rα-his
[16] = molecular target: T4, recombinant human IL4Rα-his protein (in …); assay: competitive ELISA: antibody mixed with biotin human IL4Rα-his, competitor plate-coated Benchmark
[17] = molecular target: T4, recombinant human IL4Rα-his protein (in …); assay: competitive ELISA, blocks biotin-IL4Rα-his binding to coated Benchmark (competitor)
Method: The ability of the anti-IL4Rα antibodies of the disclosure to block benchmark-human IL4Rα binding was measured in a competitive ELISA assay. Briefly, the benchmark was coated on 96-well micro plates at 2 μg/mL in PBS, 100 μl per well, and incubated overnight at 4° C. The next day, plates were washed with wash buffer (PBS+0.05% w/v Tween-20, PBST), and blocked with 5% w/v non-fatty milk in PBST for 2 hours at 37° C. tiring plate blocking, the anti-IL4Rα antibodies of the disclosure or controls were diluted with biotin labeled human IL4Rα-his proteins (prepared in-house with SEQ ID NO: 57, 0.55 nM in 2.5% w/v non-fatty milk in PBST), starting at 100 nM with a 4-fold serial dilution, and incubated at 25° C. for 40 minutes. After plate washing, the antibody/IL4Rα-his mixtures were added to benchmark coated plates, 100 μl per well. After incubation at 37° C. for 40 minutes, plates were washed using wash buffer. Then the plates were added and incubated with 100 μl/well streptavidin conjugated HRP for 40 minutes at 37° C. to detect biotin-labeled human IL4Rα-his bound to plates. Plates were washed again using wash buffer. Finally, TMB was added and the reaction was stopped using 1M H₂SO₄, and the absorbance was read at 450 nm. Data was analyzed using Graphpad Prism software and IC₅₀ values were reported.

IC50 [1]: 0.502 nM
EC50 [2]: 0.41 nM
EC50 [3]: 0.31 nM
EC50 [4]: 0.517 nM
IC50 [5]: 2.03 nM
IC50 [6]: 0.5 nM
EC50 [7]: 0.52 nM
EC50 [8]: 0.0474 nM
IC50 [9]: 2.03 nM
Inhibition on IL4 induced STAT6 phosphorylation (IC50, nM) [10]: 0.61 nM
Inhibition on IL13 induced STAT6 phosphorylation (IC50, nM) [10]: 0.6 nM
Dissociation % [11]: 0.29%
End (RU) [11]: 69.2 RU
Kd [11]: < 0.0435 nM
Start (RU) [11]: 69 RU
koff [11]: < 1e-05 s⁻¹
kon [11]: 230000 M⁻¹ s⁻¹
EC50 [12]: 0.311 nM
EC50 [13]: 0.412 nM
Kd [14]: 0.447 nM
EC50 [15]: 0.05 nM
IC50 [16]: 0.159 nM
IC50 [17]: 0.16 nM
B1: huC2C1A1A1-V15 (antibody, human IgG4, V domains shown)
VH: EVQLVESGGGLVQPGGSLRLSCAASGFTFSTYGMSWVRQAPGKGLVWVATINSNGGSTSYPDSVKGRFTISRDNAKNTLYLQMNSLRAEDTAVYYCARFFRFRNAMDYWGQGTLVTVSS
VL: DIQMTQSPSSLSASVGDRVTITCRTSENIYSYLAWYQQKPGKAPKFLVYNAKTLAEGVPSRFSGSGSGTDFTLTISSLQPEDFATYYCQHYYGPPTWTFGQGTKVEIKR
notes: Humanized, human IgG4/kappa
